From patent publication US20220251152A1, “COMPOSITIONS AND METHODS FOR SELECTIVE PROTEIN DEGRADATION” (Novartis AG, priority 2019, published 2022) come the findings set out here.

B1: 774 (protein)
chain: MALPVTALLLPLALLLHAARPHKRSHTGERPFQCNQCGASFTQKGNLLRHIKLHTGEKPFKCHLCNTASAEARHIKAEMGGTGAEDPRPSRKRRSLGDVGEIVMTQSPATLSLSPGERATLSCRASQDISKYLNWYQQKPGQAPRLLIYHTSRLHSGIPARFSGSGSGTDYTLTISSLQPEDFAVYFCQQGNTLPYTFGQGTKLEIKGGGGSGGGGSGGGGSQVQLQESGPGLVKPSETLSLTCTVSGVSLPDYGVSWIRQPPGKGLEWIGVIWGSETTYYQSSLKSRVTISKDNSKNQVSLKLSSVTAADTAVYYCAKHYYYGGSYAMDYWGQGTLVTVSSTTTPAPRPPTPAPTIASQPLSLRPEACRPAAGGAVHTRGLDFACDIYIWAPLAGTCGVLLLSLVITLYCKRGRKKLLYIFKQPFMRPVQTTQEEDGCSCRFPEEEEGGCELRVKFSRSADAPAYQQGQNQLYNELNLGRREEYDVLDKRRGRDPEMGGKPRRKNPQEGLYNELQKDKMAEAYSEIGMKGERRRGKGHDGLYQGLSTATKDTYDALHMQALPPR
B2: 773 (protein)
chain: MALPVTALLLPLALLLHAARPRSSLAHKRSHTGERPFQCNQCGASFTQKGNLLRHIKLHTGEKPFKCHLCNTASAEARHIKAEMGGTGAEDPRPSRKRRSLGDVGEIVMTQSPATLSLSPGERATLSCRASQDISKYLNWYQQKPGQAPRLLIYHTSRLHSGIPARFSGSGSGTDYTLTISSLQPEDFAVYFCQQGNTLPYTFGQGTKLEIKGGGGSGGGGSGGGGSQVQLQESGPGLVKPSETLSLTCTVSGVSLPDYGVSWIRQPPGKGLEWIGVIWGSETTYYQSSLKSRVTISKDNSKNQVSLKLSSVTAADTAVYYCAKHYYYGGSYAMDYWGQGTLVTVSSTTTPAPRPPTPAPTIASQPLSLRPEACRPAAGGAVHTRGLDFACDIYIWAPLAGTCGVLLLSLVITLYCKRGRKKLLYIFKQPFMRPVQTTQEEDGCSCRFPEEEEGGCELRVKFSRSADAPAYQQGQNQLYNELNLGRREEYDVLDKRRGRDPEMGGKPRRKNPQEGLYNELQKDKMAEAYSEIGMKGERRRGKGHDGLYQGLSTATKDTYDALHMQALPPR
B3: 6761 (protein)
chain: MALPVTALLLPLALLLHAARPEIVMTQSPATLSLSPGERATLSCRASQDISKYLNWYQQKPGQAPRLLIYHTSRLHSGIPARFSGSGSGTDYTLTISSLQPEDFAVYFCQQGNTLPYTFGQGTKLEIKGGGGSGGGGSGGGGSQVQLQESGPGLVKPSETLSLTCTVSGVSLPDYGVSWIRQPPGKGLEWIGVIWGSETTYYQSSLKSRVTISKDNSKNQVSLKLSSVTAADTAVYYCAKHYYYGGSYAMDYWGQGTLVTVSSTTTPAPRPPTPAPTIASQPLSLRPEACRPAAGGAVHTRGLDFACDIYIWAPLAGTCGVLLLSLVITLYCKRGRKKLLYIFKQPFMRPVQTTQEEDGCSCRFPEEEEGGCELRVKFSRSADAPAYQQGQNQLYNELNLGRREEYDVLDKRRGRDPEMGGKPRRKNPQEGLYNELQKDKMAEAYSEIGMKGERRRGKGHDGLYQGLSTATKDTYDALHMQALPPRKGGGSKGGGTKGGGSKMHKRSHTGERPFQCNQCGASFTQKGNLLRHIKLHTGEKPFKCHLCNTASAEARHIKAEMGGKPIPNPLLGLDST

One assay has as its system CAR19 fused to HilD tag and/or FurON. Kind of assay: Flow cytometry of surface CAR expression on JNL cells, 10 μM lenalidomide and/or bazedoxifene 24 hours. Format: cell-based, human. As to conditions: surface CAR on transduced JNL cells, 10 μM lenalidomide, 24 hours.
Text: Next, the surface expression of CAR19 on stably transduced JNL cells was examined by flow cytometry. […] On Day 2, cells were harvested, stained using biotinylated-protein L (Genscript, M00097) followed by PE conjugated streptavidin (Jackson Lab, 016-110-084), and subjected to flow cytometry analysis using Fortessa instrument.
Regarding B1, the “% reduction in CAR expression” value was determined as 5% and the Effect of lenalidomide entry is “No”.

With B2, the “% reduction in CAR expression” value is on record as 4% and the Effect of lenalidomide result is “No”.

Take B3: the “% reduction in CAR expression” value is 77% and the Effect of lenalidomide result is “Yes”.

Staying with this assay, now noted: surface CAR on transduced JNL cells, flow cytometry; FurON constructs only in presence of bazedoxifene.
Consider B1, for which the “CAR Expression” value is on record as “Yes”.

For the molecule B2, the “CAR Expression” value is “Yes”.

With B3, the “CAR Expression” value is listed as “Yes”.
